According to patent US20230020729A1 (Memorial Sloan Kettering, published 2023):

T1: human Fc Receptor-Like 5 (FcRL5), full length, expressed on cells (human, UniProt Q96RD9 16-977)
T1 construct: also called CD307e; IRTA2
T1 sequence: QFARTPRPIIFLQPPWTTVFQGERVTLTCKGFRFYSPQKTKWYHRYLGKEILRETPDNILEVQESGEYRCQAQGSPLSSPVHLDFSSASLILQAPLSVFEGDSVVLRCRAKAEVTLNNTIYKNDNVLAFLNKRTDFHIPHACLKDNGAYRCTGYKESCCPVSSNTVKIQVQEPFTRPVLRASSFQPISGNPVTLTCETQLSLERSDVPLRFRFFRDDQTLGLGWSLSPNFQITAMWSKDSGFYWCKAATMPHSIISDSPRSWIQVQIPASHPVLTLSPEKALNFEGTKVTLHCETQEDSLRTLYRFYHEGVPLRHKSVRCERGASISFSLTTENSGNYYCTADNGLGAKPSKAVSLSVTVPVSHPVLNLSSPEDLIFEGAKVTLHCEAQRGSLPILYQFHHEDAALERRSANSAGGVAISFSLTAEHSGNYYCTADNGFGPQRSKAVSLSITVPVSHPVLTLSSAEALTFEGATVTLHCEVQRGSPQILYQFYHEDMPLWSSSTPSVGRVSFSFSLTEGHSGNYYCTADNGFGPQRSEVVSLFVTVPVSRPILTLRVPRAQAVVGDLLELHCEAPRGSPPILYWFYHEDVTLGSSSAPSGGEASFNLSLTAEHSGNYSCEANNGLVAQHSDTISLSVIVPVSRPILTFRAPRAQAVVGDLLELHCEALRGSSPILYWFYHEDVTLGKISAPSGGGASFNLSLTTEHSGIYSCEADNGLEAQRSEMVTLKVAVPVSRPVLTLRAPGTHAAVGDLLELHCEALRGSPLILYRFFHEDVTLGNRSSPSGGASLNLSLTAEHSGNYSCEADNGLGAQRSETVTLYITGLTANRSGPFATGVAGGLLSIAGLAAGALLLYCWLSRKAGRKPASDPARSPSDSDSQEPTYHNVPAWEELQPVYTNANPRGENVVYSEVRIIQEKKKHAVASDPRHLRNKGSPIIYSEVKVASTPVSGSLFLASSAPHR

B1: ET200-038 scFv (scFv)
scFv: QSVLTQPPSVSGAPGQRVTISCTGSSSNIGAGFDVHWYQLLPGTAPKLLIYANSNRPSGVPDRFSGSKSGTSASLAITGLLAEDEADYYCQSYDSSLSGVVFGGGTKLTVLGSRGGGGSGGGGSGGGGSLEMAQVQLVQSGAEVKKPGSSVKVSCKASGGTFSSYAISWVRQAPGQGLEWMGGIIPIFGTANYAQKFQGRVTITADESTSTAYMELSSLRSEDTAVYYCARGASFDRHDNWGQGTLVTVSS
notes: VL-linker-VH; screened as scFv phage clone
B2: ET200-031 scFv (scFv)
scFv: SYVLTQPPSVSVAPGKTARITCGGNNIGSKSVHWYQQKPGQAPVLVIYYDSDRPSGIPERFSGSNSGNTATLTISRVEAGDEADYYCQVWDSSSDYVFGTGTKVTVLGSRGGGGSGGGGSGGGGSLEMAEVQLVETGGGLVKPGGSLRLSCAASGFTVSDYYMSWIRQAPGKGLEWISYISGSGNSIYYADSVKGRFTISRDNAKNSLDLQMTSLRAEDTAVYYCARSTKFDYWGQGTLVTVSS
notes: VL-linker-VH; screened as scFv phage clone; also called ET200-31
B3: ET200-028 scFv (scFv)
scFv: QSVLTQPPAASGTPGQRVTISCSGGVSNIGSGALNWYQQLPGTAPKLLIYSYNQRPSGVSDRFSGSRSATSASLAISGLQSEDEADYYCATWDDSVNGWVFGGGTKLTVLGSRGGGGSGGGGSGGGGSLEMAQVQLVQSGAEVKKPGDSVKVSCKPSGYNFLNYGINWVRQAPGQGLEWMGWISTYTGNTNYAQKLQGRVTFTTDTSTSTAYMEMRSLRSDDTAVYYCARDLYYYEGVDYWGQGTLVTVSS
notes: as for B1
B4: ET200-034 scFv (scFv)
scFv: QSVLTQPPSVSGAPGQRVTISCTGSTSNIGAGYDVHWYQQLPGTAPKLLINNNRNRPSGVPDRFSGSKSGTSATLGITGLQTGDEADYYCGTWDGSLTGAVFGGGTKLTVLGSRGGGGSGGGGSGGGGSLEMAEVQLVQSGAEVKKPGSSVKVSCKASGGTFSSYAISWVRQAPGQGLEWMGGIIPIFGTANYAQKFQGRVTITADESTSTAYMELSSLRSEDTAVYYCARGSALDHYDRWGQGTLVTVSS
notes: as for B1
B5: ET200-033 scFv (scFv)
scFv: NFMLTQPHSVSESPGKTVTISCTGSSGSIASNYVQWYQQRPGSAPTTVIYEDNQRPSGVPDRFSGSIDSSSNSASLTISGLKTEDEADYYCQSYDSSNHWVFGGGTKLTVLGSRGGGGSGGGGSGGGGSLEMAQVQLQQWGAGLLKPSETLSLTCAVYGGSFSGYYWSWIRQPPGKGLEWIGEITHSGRSNYNPSLKSRVTISVDTSKNQFSLKLSSVTAADTAVYYCARSSIMSDYWGQGTLVTVSS
notes: as for B1
B6: ET200-027 scFv (scFv)
scFv: QSVLTQPPSVSGAPGQGVTIPCTGSSSNIGAGYDVHWYQQLPGTAPKLLIYGNNNRPSGVPDRFSGSRSGSSASLAITGLQAEDEADYYCQSYDSSLSDVVFGGGTKVTVLGSRGGGGSGGGGSGGGGSLEMAEVQLVQSGAEVKKPGATVKISCKVSGYTFTDYYMHWVQQAPGKGLEWMGLVDPEDGETIYAEKFQGRVTITADTSTDTAYMELSSLRSEDTAVYYCARYWSYSFDYLYMPEGNDWWGQGTLVTVSS
notes: as for B1
B7: ET200-030 scFv (scFv)
scFv: QSVVTQPPSVSGAPGQRVTISCTGSSSNIGAGYDVNWYQQFPGTAPKLLIYGNSNRPSGVPDRFSGSKSGTSASLAITGLQAEDEADYYCQSYDSSLSGSYVFGTGTKVTVLGSRGGGGSGGGGSGGGGSLEMAQMQLVQSGAEVKKPGASVKVSCKASGYTLTELSMHWVRQAPGKGLEWMGGFDPEDGETIYAQKFQGRVTMTEDTSTDTAYMELSSLRSEDTAVYYCARMSSMYYDWGQGTLVTVSS
notes: as for B1
B8: ET200-041 scFv (scFv)
scFv: NFMLTQPHSVSGSPGKTVTISCTGSSGSIADNFVQWYQQRPGGVPTTVIFNDDERPSGVPDRFSGSIDTSSNSASLTISGLKTEDEADYYCQSYDNNNRGVFGGGTKLTVLGSRGGGGSGGGGSGGGGSLEMAQVQLVQSGAEVKKPGSSVKVSCKASGGTFSSYAISWVRQAPGQGLEWMGWMNPNSGNTGYAQKFQGRVTMTRNTSISTAYMELSNLRSEDTAVYYCARYYSYGYDWGQGTLVTVSS
notes: as for B1
B9: ET200-006 scFv (scFv)
scFv: SYVLTQPPSVSVAPGKTARITCGGNNIGSKSVHWYQQKPGQAPVVVIHYDSDRPSGIPERFSGSNSGNTATLTISRVEAGDEADYYCQVWDSSSDHPYVFGTGTKVTVLGSRGGGGSGGGGSGGGGSLEMAEVQLVQSGAEVKKPGASVKVSCKASGYTFTTYGISWVRQAPGQGLEWMGWINTYNGHTNYAQKLQGRATMTADTSTNTAYMELRSLRSDDTAVYYCARVIYGSGDYWGQGTLVTVSS
notes: as for B1
B10: ET200-003 scFv (scFv)
scFv: QSVLTQPPSVSVSPGQTASISCSGNKLGTKYVYWYQKRPGQSPVLVMYEDNQRPSGIPERFSGSNSGNTATLTIRGTQTVDEADYYCQAWDSDTFVVFGGGTKVTVLGSRGGGGSGGGGSGGGGSLEMAEVQLVETGGGVVQPGRSLRLSCAASGFTFSSYGMHWVRQAPGKGLEWVAVISHDGSNKYYADSVKGRFTISRDNSKDTLYLQMNSLRGEDTAVYYCARSNQWSGYFSFDYWGQGTLVTVSS
notes: as for B1
B11: ET200-032 scFv (scFv)
scFv: LPVLTQPPSASGTPGQRVTISCSGSSSNVGSYTVNWYRQLPGTAPTLLIYNNNQRPSGVPDRFSDSKSGTSASLTISGLQPEDEADYYCAAWDDRLGGYVFGTGTKVTVLGSRGGGGSGGGGSGGGGSLEMAEVQLVQSGAEVKKPGESLKISCKGSGYSFTNYWIGWVRQMPGKGLEWMGIIYPGDSDTRYSPSFQGQVTISADKSISTAYLQWSSLKASDTAMYYCARSTGSSHMSDEWGQGTLVTVSS
notes: as for B1
B12: ET200-042 scFv (scFv)
scFv: QSVVTQPPSVSGAPGQTVTISCTGGSSNIGTGYFVNWYQQVPGKAPKLLILGNNNRPSGVPDRLSGSTSGTSASLAITGLQAEDEGTYYCQSYDSSLSGYVFGTGTKVTVLGSRGGGGSGGGGSGGGGSLEMAQVQLQQSGPGLVKPSQTLSLTCGISGDSVSTNSVAWHWIRQSPSRGLEWLGRTYYRSKWSNDYGVSVKSRITIIPDTSKNQFSLQLNSVTPEDTAVYYCARSSSWYQIFDYWGQGTLVTVSS
notes: as for B1
B13: ET200-029 scFv (scFv)
scFv: QAVLTQPPSVSVAPGKTARVTCGGNNIGSESVHWYQQKPGQAPVLVIYYDTDRPSGIPERFSGSHSGTTATLTISRVEAGDEADYYCQVWDSSRDHVVFGGGTKLTVLGSRGGGGSGGGGSGGGGSLEMAQVQLVQSGGGVVQPGRSLRLSCAASGFTFSSYAMHWVRQAPGKGLEWVAVISYDGSNKYYADSVKGLFTISRDNSKNTLYLQMNSLRAEDTAVYYCARSYFTSGFYDYWGQGTLVTVSS
notes: as for B1
B14: ET200-040 scFv (scFv)
scFv: QSVLTQPPSVSGAPGQRVTISCTGSSSNIGAGYDVHWYQQLPGTAPKLLIYGNSNRPSGVPDRFSGSKSGTSASLAITGLQAEDEADYYCQSYDSSLSGYVFGTGTKVTVLGSRGGGGSGGGGSGGGGSLEMAQVQLVQSGAEVKKPGASVKVSCKVSGYTLTELSMHWVRQAPGKGLEWMGGFDPEDGETIYAQKFQGRVTMTEDTSTDTAYMELSSLRSEDTAVYYCARYSGVYYDWGQGTLVTVSS
notes: as for B1

Target: T1, human Fc Receptor-Like 5 (FcRL5), full …
Assay: scFv phage: ELISA on His-tag FcRL5, flow cytometry on FcRL5-overexpressing 3T3 and Raji cells

Row | Binder | binding result
1 | B1 | binds
2 | B2 | binds
3 | B3 | binds
4 | B4 | binds
5 | B5 | binds
6 | B6 | binds
7 | B7 | binds
8 | B8 | binds
9 | B9 | binds
10 | B10 | binds
11 | B11 | binds
12 | B12 | binds
13 | B13 | binds
14 | B14 | binds
